{"source": "patent US20250084169A1", "about": "(published 2025)", "key": {"[1]": {"biological_target": "recombinant human Fc gamma RIIIa (CD16a) 158F (human, UniProt P08637 17-208)", "sequence (P08637 17-208 limits assumed)": "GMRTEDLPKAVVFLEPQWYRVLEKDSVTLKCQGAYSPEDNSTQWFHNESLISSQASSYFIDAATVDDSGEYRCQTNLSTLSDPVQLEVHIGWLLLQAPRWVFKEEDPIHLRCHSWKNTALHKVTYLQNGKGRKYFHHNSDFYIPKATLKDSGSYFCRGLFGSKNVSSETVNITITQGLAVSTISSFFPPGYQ"}, "[2]": {"biological_target": "recombinant human Fc gamma RIIIa (CD16a) 158V (human, UniProt P08637 17-208)", "sequence (P08637 17-208 F176V limits assumed)": "as the sequence (P08637 17-208 limits assumed) above, with F160V counted along it"}, "[3]": {"biological_target": "recombinant human Fc gamma RIIIb (CD16b) (human, UniProt O75015 17-200)", "sequence (O75015 17-200 limits assumed)": "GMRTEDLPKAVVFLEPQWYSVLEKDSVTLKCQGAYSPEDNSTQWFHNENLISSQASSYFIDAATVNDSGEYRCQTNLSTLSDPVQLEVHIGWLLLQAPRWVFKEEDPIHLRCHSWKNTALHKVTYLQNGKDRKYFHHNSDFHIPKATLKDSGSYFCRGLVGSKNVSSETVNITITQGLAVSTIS"}, "[4]": {"biological_target": "T1, recombinant human Fc gamma RIIa (CD32a) 131R (human, UniProt P12318 36-218)", "T1 sequence (looked up)": "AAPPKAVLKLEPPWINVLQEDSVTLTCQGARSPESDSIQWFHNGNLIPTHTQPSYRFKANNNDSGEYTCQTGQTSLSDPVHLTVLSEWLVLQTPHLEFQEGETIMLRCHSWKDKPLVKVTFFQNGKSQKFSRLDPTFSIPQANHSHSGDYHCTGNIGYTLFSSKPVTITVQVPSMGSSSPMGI"}, "[5]": {"biological_target": "T2, recombinant human Fc gamma RIIb/c (CD32b/c) (human, UniProt P31994 46-217)", "T2 sequence (looked up)": "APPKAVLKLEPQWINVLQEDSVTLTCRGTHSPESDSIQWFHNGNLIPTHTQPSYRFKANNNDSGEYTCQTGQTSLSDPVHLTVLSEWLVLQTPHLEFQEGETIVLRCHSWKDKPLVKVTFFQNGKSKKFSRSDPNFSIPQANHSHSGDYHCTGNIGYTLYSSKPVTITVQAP"}, "[6]": {"biological_target": "recombinant human Fc gamma RI (CD64) (human, UniProt P12314 16-288)", "sequence (P12314 16-288 limits assumed)": "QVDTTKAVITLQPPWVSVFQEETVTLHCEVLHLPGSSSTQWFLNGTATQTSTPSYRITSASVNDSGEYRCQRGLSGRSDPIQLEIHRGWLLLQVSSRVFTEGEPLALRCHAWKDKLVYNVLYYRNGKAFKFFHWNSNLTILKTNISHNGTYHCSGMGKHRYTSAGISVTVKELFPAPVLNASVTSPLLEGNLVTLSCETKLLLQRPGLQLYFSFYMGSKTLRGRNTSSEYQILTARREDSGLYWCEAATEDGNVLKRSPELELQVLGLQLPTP"}}}
{"binder": "HB2174 (bispecific antibody, human IgG1, kappa) heavy 1: QVQLVQSGGGVVQPGRSLRLSCAASGVSLPDYGVSWVRKAPGKGLEWVAVIWGSETTYYNSALKSRFTISRDNSKNTLYLQMSSLRAEDTAVYYCAKHYYYGGSFAMDYWGQGTLVTVSSASTKGPSVFPLAPSSKSTSGGTAALGCLVKDYFPEPVTVSWNSGALTSGVHTFPAVLQSSGLYSLESVVTVPSSSLGTQTYICNVNHKPSNTKVDKKVEPKSCTDWSPYADQSIKVRISLKSALGDKAYEWNDNEMYLFRSSVAYAMRQYFLKVKNQMILFGEEDVRVANLKPRISFNFFVTAPKNVSDIIPRTEVEKAIRMSRSRINDAFRLNDNSLEFLGIQPTLGPPNQPPVSTSTSPTRSMAPGAVHLPQPVSTRDKTHTCPPCPAPELLGGPSVFLFPPKPKDTLMISRTPEVTCVVVDVSHEDPEVKFNWYVDGVEVHNAKTKPREEQYNSTYRVVSVLTVLHQDWLNGKEYKCKVSNKALPAPIEKTISKAKGQPREPQVCTLPPSRDELTKNQVSLSCAVKGFYPSDIAVEWESNGQPENNYKTTPPVLDSDGSFFLVSKLTVDKSRWQQGNVFSCSVMHEALHNRFTQKSLSLSPG heavy 2: not shown light 1: DIQMTQSPSSLSASVGDRVTITCRASQDISKYLNWYQEKPGKAIKLLIYHTSRLHSGVPSRFSGSGSGTDFTLTISSLQPEDFATYYCQQGATLPYTFGPGTKLEIKRTVAAPSVFIFPPSDEQLKSGTASVKCLLNNFYPREAKVQWKVDNALQSGNSQESVTEQDSKDSTYSLSSTLTLSKADYEKHKVYACEVTHQGLSSPVTKSFNRGEC light 2: QVQLQQPGAELVKPGASVKMSCKASGYTFTSYNMHWVKETPGRGLEWIGAIYPGNGDTSYNQKFKGKATLTADKSSSTAYMQLSSLTSEDSAVYYCARSTYYGGDWYFNVWGAGTLVTVSSASVAAPSVFIFPPSDEQLKSGTASVECLLNNFYPREAKVQWKVDNALQSGNSQESVTEQDSKDSTYSLSSTLTLSKADYEKHKVYACEVTHQGLSSPVTKSFNRGEC", "values": [{"measurement": "Kd", "setting": "[1]", "result": 2310, "unit": "nM"}, {"measurement": "Kd", "setting": "[2]", "result": 497, "unit": "nM"}, {"measurement": "Kd", "setting": "[3]", "result": 8910, "unit": "nM"}, {"measurement": "Kd", "setting": "[4]", "result": 901, "unit": "nM"}, {"measurement": "Kd", "setting": "[5]", "result": 4480, "unit": "nM"}, {"measurement": "Kd", "setting": "[6]", "result": 0.118, "unit": "nM"}]}
{"binder": "Rituximab-S239D/I332E (antibody, human IgG1, kappa) heavy: not shown light: QIVLSQSPAILSASPGEKVTMTCRASSSVSYIHWFQQKPGSSPKPWIYATSNLASGVPVRFSGSGSGTSYSLTISRVEAEDAATYYCQQWTSNPPTFGGGTKLEIKRTVAAPSVFIFPPSDEQLKSGTASVVCLLNNFYPREAKVQWKVDNALQSGNSQESVTEQDSKDSTYSLSSTLTLSKADYEKHKVYACEVTHQGLSSPVTKSFNRGEC", "values": [{"measurement": "Kd", "setting": "[1]", "result": 17.6, "unit": "nM"}, {"measurement": "Kd", "setting": "[2]", "result": 4.33, "unit": "nM"}, {"measurement": "Kd", "setting": "[3]", "result": 66.8, "unit": "nM"}, {"measurement": "Kd", "setting": "[4]", "result": 76.8, "unit": "nM"}, {"measurement": "Kd", "setting": "[5]", "result": 138, "unit": "nM"}, {"measurement": "Kd", "setting": "[6]", "result": 0.0266, "unit": "nM"}]}
